The record followed here is patent US20240173398A1 (MAX PLANCK GESELLSCHAFT ZUR F RDERUNG DER WISSENSCHAFTEN E V, published 2024).

The target of the assay is SARS-CoV-2 S1 334-526 N343D (SARS-CoV-2, UniProt P0DTC2 334-526). The assay is described as follows: co-secretion from Pichia pastoris; biochemical and structural analysis.

B1: VHH antibody Re21D01 (VHH)
VHH: QVQLVESGGALVQPGGSLRLSCVASGFTFSSFAMGWYRQAPGKECEWVATITITGGSTNYADSVKGRFTISRDNAKNTVYLQMNSLKPEDTAVYYCNPDPGCRRGQGTQVTVSS
Regarding B1, the binding result is reported as “binds”.
